What was measured:
Assay in all cases: PEPSCAN ELISA, looped peptide, antibody 10 µg/ml
[1] = target: looped/cyclic peptide … (rabies virus strain ERA)
[2] = target: looped/cyclic peptide … (rabies virus strain ERA); remark: listed apart in the source
[3] = target: looped/cyclic peptide … (rabies virus strain ERA); remark: listed apart in the source
[4] = target: looped/cyclic peptide … (rabies virus strain ERA); remark: listed apart in the source
[5] = target: looped/cyclic peptide … (rabies virus strain ERA); remark: listed apart in the source
[6] = target: looped/cyclic peptide … (rabies virus strain ERA); remark: listed apart in the source
[7] = target: looped/cyclic peptide … (rabies virus strain ERA); remark: listed apart in the source
[8] = target: looped/cyclic peptide … (rabies virus strain ERA); remark: listed apart in the source
[9] = target: looped/cyclic peptide … (rabies virus strain ERA); remark: listed apart in the source
[10] = target: looped/cyclic peptide … (rabies virus strain ERA); remark: listed apart in the source
[11] = target: looped/cyclic peptide … (rabies virus strain ERA); remark: listed apart in the source
[12] = target: looped/cyclic peptide … (rabies virus strain ERA); remark: listed apart in the source
[13] = target: looped/cyclic peptide … (rabies virus strain ERA); remark: listed apart in the source
[14] = target: looped/cyclic peptide … (rabies virus strain ERA); remark: listed apart in the source
[15] = target: looped/cyclic peptide … (rabies virus strain ERA); remark: listed apart in the source
[16] = target: looped/cyclic peptide … (rabies virus strain ERA); remark: listed apart in the source
[17] = target: looped/cyclic peptide … (rabies virus strain ERA); remark: listed apart in the source
[18] = target: looped/cyclic peptide … (rabies virus strain ERA); remark: listed apart in the source
[19] = target: looped/cyclic peptide … (rabies virus strain ERA); remark: listed apart in the source
[20] = target: looped/cyclic peptide … (rabies virus strain ERA); remark: listed apart in the source
[21] = target: looped/cyclic peptide … (rabies virus strain ERA); remark: listed apart in the source
[22] = target: looped/cyclic peptide … (rabies virus strain ERA); remark: listed apart in the source
[23] = target: looped/cyclic peptide … (rabies virus strain ERA); remark: listed apart in the source
[24] = target: looped/cyclic peptide … (rabies virus strain ERA); remark: listed apart in the source
[25] = target: looped/cyclic peptide … (rabies virus strain ERA); remark: listed apart in the source
[26] = target: looped/cyclic peptide … (rabies virus strain ERA); remark: listed apart in the source
[27] = target: looped/cyclic peptide … (rabies virus strain ERA); remark: listed apart in the source
[28] = target: looped/cyclic peptide … (rabies virus strain ERA); remark: listed apart in the source
[29] = target: looped/cyclic peptide … (rabies virus strain ERA); remark: listed apart in the source
[30] = target: looped/cyclic peptide … (rabies virus strain ERA); remark: listed apart in the source
[31] = target: looped/cyclic peptide … (rabies virus strain ERA); remark: listed apart in the source
[32] = target: looped/cyclic peptide … (rabies virus strain ERA); remark: listed apart in the source
[33] = target: looped/cyclic peptide … (rabies virus strain ERA); remark: listed apart in the source
[34] = target: looped/cyclic peptide … (rabies virus strain ERA); remark: listed apart in the source
[35] = target: looped/cyclic peptide … (rabies virus strain ERA); remark: listed apart in the source
[36] = target: looped/cyclic peptide … (rabies virus strain ERA); remark: listed apart in the source
[37] = target: looped/cyclic peptide … (rabies virus strain ERA); remark: listed apart in the source
[38] = target: looped/cyclic peptide … (rabies virus strain ERA); remark: listed apart in the source
[39] = target: looped/cyclic peptide … (rabies virus strain ERA); remark: listed apart in the source
[40] = target: looped/cyclic peptide … (rabies virus strain ERA); remark: listed apart in the source
[41] = target: looped/cyclic peptide … (rabies virus strain ERA); remark: listed apart in the source
[42] = target: looped/cyclic peptide … (rabies virus strain ERA); remark: listed apart in the source
[43] = target: looped/cyclic peptide … (rabies virus strain ERA); remark: listed apart in the source
[44] = target: looped/cyclic peptide … (rabies virus strain ERA); remark: listed apart in the source
[45] = target: looped/cyclic peptide … (rabies virus strain ERA); remark: listed apart in the source
[46] = target: looped/cyclic peptide … (rabies virus strain ERA); remark: listed apart in the source
[47] = target: looped/cyclic peptide … (rabies virus strain ERA); remark: listed apart in the source
[48] = target: looped/cyclic peptide … (rabies virus strain ERA); remark: listed apart in the source
[49] = target: looped/cyclic peptide DIHHLSCPNNLVVED (rabies virus strain ERA)
[50] = target: looped/cyclic peptide … (rabies virus strain ERA); remark: listed apart in the source
[51] = target: looped/cyclic peptide … (rabies virus strain ERA); remark: listed apart in the source
[52] = target: looped/cyclic peptide … (rabies virus strain ERA); remark: listed apart in the source
[53] = target: looped/cyclic peptide … (rabies virus strain ERA); remark: listed apart in the source
[54] = target: looped/cyclic peptide … (rabies virus strain ERA); remark: listed apart in the source
[55] = target: looped/cyclic peptide … (rabies virus strain ERA); remark: listed apart in the source
[56] = target: looped/cyclic peptide … (rabies virus strain ERA); remark: listed apart in the source
[57] = target: looped/cyclic peptide … (rabies virus strain ERA); remark: listed apart in the source
[58] = target: looped/cyclic peptide … (rabies virus strain ERA); remark: listed apart in the source
[59] = target: looped/cyclic peptide … (rabies virus strain ERA); remark: listed apart in the source
[60] = target: looped/cyclic peptide … (rabies virus strain ERA); remark: listed apart in the source
[61] = target: looped/cyclic peptide … (rabies virus strain ERA); remark: listed apart in the source

B1: human monoclonal antibody CRJA (antibody, V domains shown)
VH: EVQLLESGGGLVQPGGSLRLSCAASGFTFSNYAMSWVRQAPGKGLEWVSAISASGHSTYLADSVKGRFTISRDNSKNTLYLQMNSLRAEDTAVYYCAKDREVTMIVVLNGGFDYWGQGTRVTVSS
VL: EIVLTQSPATLSLSPGERATLACRASQTASRYLAWYQQKPGQAPRLLIYDTSNRATGIPARFSGSGSGTDFTLSISSLEPEDFAVYYCQQRFNWPWTFGQGTKVEFK
[1]
  OD value: 38 OD
[2]
  OD value: 72 OD
[3]
  OD value: 89 OD
[4]
  OD value: 84 OD
[5]
  OD value: 78 OD
[6]
  OD value: 98 OD
[7]
  OD value: 90 OD
[8]
  OD value: 92 OD
[9]
  OD value: 90 OD
[10]
  OD value: 78 OD
[11]
  OD value: 86 OD
[12]
  OD value: 100 OD
[13]
  OD value: 86 OD
[14]
  OD value: 151 OD
[15]
  OD value: 82 OD
[16]
  OD value: 46 OD
[17]
  OD value: 92 OD
[18]
  OD value: 71 OD
[19]
  OD value: 100 OD
[20]
  OD value: 71 OD
[21]
  OD value: 96 OD
[22]
  OD value: 54 OD
[23]
  OD value: 93 OD
[24]
  OD value: 93 OD
[25]
  OD value: 88 OD
[26]
  OD value: 98 OD
[27]
  OD value: 55 OD
[28]
  OD value: 45 OD
[29]
  OD value: 45 OD
[30]
  OD value: 58 OD
[31]
  OD value: 89 OD
[32]
  OD value: 78 OD
[33]
  OD value: 41 OD
[34]
  OD value: 43 OD
[35]
  OD value: 87 OD
[36]
  OD value: 38 OD
[37]
  OD value: 38 OD
[38]
  OD value: 89 OD
[39]
  OD value: 105 OD
[40]
  OD value: 108 OD
[41]
  OD value: 83 OD
[42]
  OD value: 84 OD
[43]
  OD value: 92 OD
[44]
  OD value: 57 OD
[45]
  OD value: 96 OD
[46]
  OD value: 62 OD
[47]
  OD value: 82 OD
[48]
  OD value: 58 OD
[49]
  OD value: 62 OD
[50]
  OD value: 83 OD
[51]
  OD value: 78 OD
[52]
  OD value: 86 OD
[53]
  OD value: 71 OD
[54]
  OD value: 86 OD
[55]
  OD value: 104 OD
[56]
  OD value: 74 OD
[57]
  OD value: 88 OD
[58]
  OD value: 66 OD
[59]
  OD value: 100 OD
[60]
  OD value: 83 OD
[61]
  OD value: 96 OD

Source: US20060263802A1 (CRUCELL HOLLAND B V, published 2006)
